One block for each binder: values may come before it.
Legend:
[1] = target: T1, Fc fusion of the human GFRα1 extracellular domain (GFRα1:Fc fusion protein) (human, UniProt P56159 25-429, limits assumed); experiment: ELISA on captured GFRα1:Fc (format of FIG. 33), run with the CHO-derived fusion protein
T1 construct: extracellular domain; Bought (R&D Systems), captured on plates by a mouse anti-human IgG; also called GFRα1 ECD; GFRal; not shown: Fc part of the bought fusion, captured by a mouse anti-human Fc antibody
T1 sequence (looked up): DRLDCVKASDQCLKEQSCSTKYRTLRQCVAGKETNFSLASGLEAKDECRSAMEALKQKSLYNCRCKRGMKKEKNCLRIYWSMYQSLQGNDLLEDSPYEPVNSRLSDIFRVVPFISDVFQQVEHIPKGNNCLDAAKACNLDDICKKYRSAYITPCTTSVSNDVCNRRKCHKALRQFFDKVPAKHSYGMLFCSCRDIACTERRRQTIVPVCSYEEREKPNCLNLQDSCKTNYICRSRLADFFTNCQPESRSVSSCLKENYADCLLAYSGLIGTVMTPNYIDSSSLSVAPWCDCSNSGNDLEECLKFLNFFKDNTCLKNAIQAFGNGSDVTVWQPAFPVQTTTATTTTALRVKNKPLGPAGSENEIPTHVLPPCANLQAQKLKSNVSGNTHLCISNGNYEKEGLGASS

[2] = target: T1, Fc fusion of the human GFRα1 …; experiment: ELISA on GFRα1:Fc captured by mouse anti-human IgG, detection with goat anti-GDNF antibody
[3] = target: T2, human insulin receptor extracellular domain (HIR ECD) (human, UniProt P06213 28-956, limits assumed); experiment: competitive ligand binding assay: displacement of [125I] murine HIRMAb from plated HIR ECD; Scatchard analysis, high affinity site, nonlinear regression
T2 construct: extracellular domain

[4] = target: T1, Fc fusion of the human GFRα1 …; experiment: ELISA on GFRα1:Fc captured by mouse anti-human Fc antibody, detection with goat anti-GDNF antibody
[5] = target: T2, human insulin receptor extracellular …; experiment: ELISA on plated HIR ECD, COS cell-derived protein, detection with biotinylated goat anti-human IgG; non-linear regression

EC50 [1]: 1 nM | EC50 [2]: 1.03 nM
B1: recombinant human GDNF (ligand)
chain: SPDKQMAVLPRRERNRQAAAANPENSRGKGRRGQRGKNRGCVLTAIHLNVTDLGLGYETKEELIFRYCSGSCDAAETTYDKILKNLSRNRRLVSDKVGQACCRPIAFDDDLSFLDDNLVYHILRKHSAKRCGCI
notes: Bought (Peprotech); also called recombinant GDNF

Ki [3]: 0.63 nM
B2: chimeric HIRMAb (Examples 3 and 4) (antibody, human IgG1, kappa)
heavy: not shown
light: DIQMTQSPSSLSASLGERVSLTCRASQDIGGNLYWLQQGPDGTIKRLIYATSSLDSGVPKRFSGSRSGSDYSLTISSLESEDFVDYYCLQYSSSPWTFGGATKMEIKRTVAAPSVFIFPPSDEQLKSGTASVVCLLNNFYPREAKVQWKVDNALQSGNSQESVTEQDSKDSTYSLSSTLTLSKADYEKHKVYACEVTHQGLSSPVTKSFNRGEC
notes: also called chimeric form of the HIRMAb; product of clone 400

binding result [4]: no binding | EC50 [5]: 0.5 nM
B3: chimeric HIRMAb (Examples 15 and 16) (antibody, human IgG1, kappa, V domains shown)
VH: QVQLQQSGPELVKPGALVKISCKASGYTFTNYDIHWVKQRPGQGLEWIGWIYPGDGSTKYNEKFKGKATLTADKSSSTAYMHLSSLTSEKSAVYFCAREWAYWGQGTLVTVSA
VL: DIQMTQSPSSLSASLGERVSLTCRASQDIGGNLYWLQQGPDGTIKRLIYATSSLDSGVPKRFSGSRSGSDYSLTISSLESEDFVDYYCLQYSSSPWTFGGGTKMEIKR
notes: also called COS cell-derived chimeric HIRMAb; CHO-derived HIRMAb

— patent US20220378932A1 (published 2022)
